From the domain aggregation screens of Martell et al. (2025)

Assay: soluble fraction after stress (log2 fold change); higher = more stays soluble; pooled small domains, quantitative proteomics
Details: stress: 75 degC
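Further: 20 min heating vs room temperature control held 20 min.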

Row | Sequence | soluble fraction (log2)
1 | HMETFGLSQRELQILSQLHKGQPLKEFAASLFITESTLKTHLSAIYRKMSVKNRVQAIEKAKQSGL | -1.4
2 | HMETGEDSLRRYFNSLPGSASKREILEDNPTVSQRTTERILQKLQAEGFIEKVGAARATRYRKVKQ | 0.259
3 | HMETGELQQILEDVFSKNIGIVQDKREAAFSILMGMIMAKSRGRADGALVSTLLKKKLTEFLATSDQVR | -0.0719
4 | HMETGNEDYRVGKELAYDGNYKAATIYLMKSIKDDPNNPDAFNMLGFSHRKLGNNDEAYIYYNKALEL | -0.275
5 | HMETKKEIIEAINELEEKYRNAIYLTSIEKLSYEETSKILGQSLSNTKNLIHRGKQQLRKILIKK | -0.772
6 | HMETLEDHRKKTRQQLFDALSHLLQTSTFESLTMAKIAEEAGVGRTAVYNHFQDKEALLLAFITYETGQ | -1.74
7 | HMETLETYTSRLRQLEDITNNFKGVDKSFAIQAGREIRVMVVPEQVSDADMILMARDISKAIEAELEYPGQ | 0.0937
8 | HMETLGADLRALRKSRGLTLLDMAESLGRSVGWLSQVERDLSDPSISDLREIAELLGVPISMLFRH | -2.83
9 | HMETLKEMDSKGAINASEVNVREGAGTSSSKMYSLSKGASVDVTGIKGDWYRVHTSKGTGYVLAKYVTLVS | -0.29
10 | HMETLYGQIVNDIMEKIESNAWPVGYVIPTESDFQKQYGVSRATVRNAILKLAHLGYLVRKKGSGTYVTRP | -1.25
11 | HMETPEIPGLTPRQVEIMLLVGKGYSNKEIARFLTISPETVKTHLKEVFLRFGLRNRVEAIDFTRQNGL | -0.656
12 | HMETPLSAADFKIVFGEEYEIGTDANGLPKMGSRINRQLQNRFLTWASVNKRKATMSAYQDWVASDPAAQ | -0.323
13 | HMETQVKVPNVVGMTQSKAIAKLKESKLDYEVQEQKHDGDKGKVVDQSEAEGTYVDRGTKVIIYVSTGE | -0.437
14 | HMETSIQFIRLEIGHNHPWVNQTLKEIPTIPGTLIAAVLRGDEDQAIIPKGDTLLKEGDSVIIGAKEYQD | -1.42
15 | HMETSLVIQIDGAVNSPGIYQVTPGTRIFEALELAGGVREDAQTEALNLALPVYDGQRISIPSSFA | -0.153
16 | HMETTVSYSGVVTASVLRIRKGPSVSSSVAGTLKKGTGVSIIFEDNGWGKLADGSGWVSLTYIKKNSTP | -2.33
17 | HMETWDQAYETIKQNILNLTYPPGMPLTEAKLAEELGMSRSPVRTALRMLQTDGLIVTDYYKSMTVKEI | -1.95
18 | HMETWKLYKRAYKKYYARYMKGNMSEADFKAWATQAAADRDAAIEQITPEIDAALKAQIIEQLREKLNR | -1.11
19 | HMEVAAAENYRSKLSSFAKDTISVWQTELLLGTISDDDKASLTEWMAYIKALQVVDTSDPESITWPTEPT | -1.14

Row | Sequence | soluble fraction (log2)
20 | HMEVAASEQRDNLWALARRVLSGEQYDVLYLRYVEDFSVAQIADVVGKTQTHVKVLLFRGRNNLGSRLRS | 0.0441
21 | HMEVENAQLLARLTPQEHRVFERVVAGLSNREIGSEMDISIKTVEVHRARVMRKLEANSVAELVRFHIHN | -2.37
22 | HMEVGDTYLGKVTRVSSFGAFIEVLPGKEGLMRQNDAGEGGMPEVGDEVMVRVMEVDHLGRINLSGKLDD | -0.102
23 | HMEVGKRIAEIRKENRMSQEQFGQLFHVTRQTVSNWENAKSYPDLQTLVKISELFEITMDELLK | -1.45
24 | HMEVKVSGHLEAIGGVYHMKLSWIDDAGKRRRKSKSTGLAERGNKKRANDMLIDFMREQEAEIAASGD | -2.05
25 | HMEVLSKRGSTGTEVINIQKKLKNWGYYTGSVDGIYGKLTEEAVRYFQRTNGLTVDGIAGKNTLAAMGIA | -0.619
26 | HMEVNLEPLIALLRKHRDLDLSGYSKSTLGRRITYFMGLNKISSIDELGRRLAEDDLLFQEFLDKLT | -0.264
27 | HMEVSLEDKMDYLTNYATTHKNFSFRNLLESSSGKIEVIVTFLAILELMKMGRINISQEHIFDDIIIESRI | -2.68
28 | HMEVSTRQVRAALRDIIEAEDKKRPLSDEAITARLREQGLPVARRTVAKYREQMGILAARLRK | -0.662
29 | HMEVVRVEPGATVRDLGEALGVPPTRIIQILMGLGEMKTVTQTLSTEEIELVAEELGRRVEV | -0.108
30 | HMEWVVVPDVRRQLLPEAQRRVNKARLRLEVAGGWPAEPLLAMVVDQKPGPETRVPLNSIVVVVVRNLP | -0.981
31 | HMEYELYALKEEVLKRLTREDRELLILLFEERRTIHAVAQRLGLSDSAVYKRRTQLVNKVKVIASMLM | -2.22
32 | HMEYKNYYDSPVGRLELLSDGVSLTAVLFENQQGDGTREENTSLAIFKEATQWLDAYFKGDNPEITIPL | 0.0228
33 | HMEYKTGIINTNKVRVRNAADADATVIFAINKDIKVKILAEENGFYKIGVSVKNRGNGEDLIGFVKKELIT | -1.81
34 | HMEYQTVEKSEAEQIIQELEKAERLALKVYSKNDIITGISVSDGKSYYFSAELVPMLKNIIENPEIKIL | -0.795
35 | HMEYRVRDKMTDILELLTEHRGRIALRDAFPTGTREELLAAFLALLELTKMQTVIVYQDRLYDDIQIVMK | -0.354
36 | HMEYSTLEIYSQTKKDLIEKSPHLNKVVYDKDDGYIYLLSFEKEDDLTSFKSNIENDSDIKRIEANV | 0.121
37 | HMEYTVNRLAQISGVSKRTLRYYDEIGLLRPERVNPNGYRIYGQMQVDLLQQILFYRELGLPLEEIREII | -0.502
38 | HMFAATGVVNAPSGLVLRETASKGGNPLATVPDKAQVEIVEEDGEWYKVKVNEQTGYLFAEFVNKTE | -0.0895
